The values below come from US20150344570A1 (published 2015).

Common to all, as to assay: SPR (Biacore); KD of H240-Kn120/H240-Hl068/L73-k0 divided by KD of the sample
For orientation: SPR reads the build-up and loss of mass on a sensor chip optically.

The target in one test is T1, FcgRIIaH (human, UniProt P12318 34-217).
T1 construct: extracellular domain; Allotype H131; also called FcγRIIa H; FcgRIIa type H; not shown: His tag attached to the C terminus
T1 sequence (looked up): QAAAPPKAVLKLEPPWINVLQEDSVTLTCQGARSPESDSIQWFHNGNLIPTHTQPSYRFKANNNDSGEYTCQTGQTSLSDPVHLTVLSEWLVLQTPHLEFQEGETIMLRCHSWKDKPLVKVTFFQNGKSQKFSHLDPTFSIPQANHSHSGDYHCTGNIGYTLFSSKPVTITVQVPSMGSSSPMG
The method, then: (§1) Analysis of interaction between objective antibody and the FcγR was carried out using Biacore T100 (GE Healthcare), Biacore T200, Biacore A100, and Biacore 4000. HBS-EP+ (GE Healthcare) was used as the running buffer, and the measurement temperature was set to 25° C. Chips produced by immobilizing the antigen peptide by the amine coupling method to a Series S sensor Chip CM5 (GE Healthcare), chips produced by allowing preliminarily biotinylated antigen peptides to interact with and immobilize onto a Series S Sensor Chip SA (certified) (GE Healthcare), chips produced by immobilizing Protein L (ACTIGEN, BioVision) to Series S Sencor Chip CM5 (GE Healthcare), or chips produced by immobilizing Protein A/G (Thermo Scientific) to Series S Sencor Chip CM5 (GE Healthcare) were used. Antibodies of interest were captured onto these chips, and allowed to interact to each FcγR diluted with running buffer. To regenerate and repeatedly use the chip, the antibodies captured onto the chip were washed off by reacting 10 mM glycine-HCl, pH 1.5.

In a further test the target is T2, FcgRIIIaV (human, UniProt P08637 17-208).
T2 construct: extracellular domain; Allotype V158; also called FcγRIIIa V; not shown: His tag attached to the C terminus
T2 sequence (P08637 17-208 F176V limits assumed): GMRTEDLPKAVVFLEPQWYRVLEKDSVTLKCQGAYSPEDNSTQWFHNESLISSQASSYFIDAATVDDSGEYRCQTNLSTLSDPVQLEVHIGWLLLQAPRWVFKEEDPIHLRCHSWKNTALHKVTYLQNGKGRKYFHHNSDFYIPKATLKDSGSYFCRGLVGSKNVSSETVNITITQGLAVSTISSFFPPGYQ
The method, then: as §1

For a further test, the target named is T3, FcgRIa (human, UniProt P12314 16-292).
T3 construct: extracellular domain; Soluble extracellular domain expressed in FreeStyle293 cells; also called FcγRIa; FcγRI; not shown: His tag attached to the C terminus
T3 sequence (P12314 16-292): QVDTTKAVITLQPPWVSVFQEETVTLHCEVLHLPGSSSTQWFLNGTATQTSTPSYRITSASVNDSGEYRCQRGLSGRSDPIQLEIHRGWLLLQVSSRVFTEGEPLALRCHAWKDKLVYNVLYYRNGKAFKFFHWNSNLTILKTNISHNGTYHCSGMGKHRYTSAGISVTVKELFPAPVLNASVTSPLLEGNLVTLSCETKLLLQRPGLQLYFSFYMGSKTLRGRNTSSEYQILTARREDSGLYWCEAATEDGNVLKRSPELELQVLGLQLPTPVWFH
On the procedure:
as §1

Another test deals with T4, FcgRIIaR (human, UniProt P12318 34-217).
T4 construct: extracellular domain; Allotype R131; also called FcγRIIa R; FcgRIIa type R; not shown: His tag attached to the C terminus
T4 sequence (looked up): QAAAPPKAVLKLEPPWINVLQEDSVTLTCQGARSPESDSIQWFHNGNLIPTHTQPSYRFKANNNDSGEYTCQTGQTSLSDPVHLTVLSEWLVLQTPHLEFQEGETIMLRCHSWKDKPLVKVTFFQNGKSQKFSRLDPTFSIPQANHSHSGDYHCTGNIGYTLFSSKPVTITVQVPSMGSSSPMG
On the procedure: as §1

The target in a further test is T5, FcgRIIb (human, UniProt P31994 43-217).
T5 construct: extracellular domain; also called FcγRIIb; CD32B; not shown: His tag attached to the C terminus
T5 sequence (looked up): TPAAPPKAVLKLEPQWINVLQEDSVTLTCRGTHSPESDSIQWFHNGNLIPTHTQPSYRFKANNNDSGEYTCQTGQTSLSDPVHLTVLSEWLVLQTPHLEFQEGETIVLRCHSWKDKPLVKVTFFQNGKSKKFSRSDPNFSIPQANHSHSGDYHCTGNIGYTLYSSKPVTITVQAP
On the procedure: as §1

In the next test the target is T6, FcgRIIIaF (human, UniProt P08637 17-208).
T6 construct: extracellular domain; Allotype F158; also called FcγRIIIa F; not shown: His tag attached to the C terminus
T6 sequence (P08637 17-208): as the sequence (P08637 17-208 F176V limits assumed) above, with V160F counted along it
On the procedure: as §1

B1: H240-Kn120/H240-Hl150/L73-k0 (antibody, human IgG1, kappa)
heavy 1: QDQLVQSGAEVKKPGASVKVSCKASGFNIKDTYIQWVRQAPGQGLEWMGRIDPLRKQTKYREKFEGRVTITADTSTNTAYMELSSLRSEDTAVYYCVRSGREFDYWGQGTLVTVSSASTKGPSVFPLAPSSKSTSGGTAALGCLVKDYFPEPVTVSWNSGALTSGVHTFPAVLQSSGLYSLSSVVTVPSSSLGTQTYICNVNHKPSNTKVDKKVEPKSCDKTHTCPPCPAPEYYWGPMVFLFPPKPKDTLMISRTPEVTCVVVDVSDEDPEVKFNWYVDGVEVHNAKTKPREEQYNATYRVVSVLTVLHQDWLNGKEYKCKVSNKDLPAPIEKTISKAKGQPREPQVCTLPPSRDELTKNQVSLWCLVKGFYPSDIAVEWESNGQPENNYKTTPPVLDSDGSFFLYSKLTVDKSRWQQGNVFSCSVMHEALHNHYTQKSLSLSP
heavy 2: QDQLVQSGAEVKKPGASVKVSCKASGFNIKDTYIQWVRQAPGQGLEWMGRIDPLRKQTKYREKFEGRVTITADTSTNTAYMELSSLRSEDTAVYYCVRSGREFDYWGQGTLVTVSSASTKGPSVFPLAPSSKSTSGGTAALGCLVKDYFPEPVTVSWNSGALTSGVHTFPAVLQSSGLYSLSSVVTVPSSSLGTQTYICNVNHKPSNTKVDKKVEPKSCDKTHTCPPCPAPELLGGPSVFLFPPKPKDTLMISRTPEVTCVVVDVSHEEPEVKFNWYVDGVEVHNAKTKPREEQYNSTYRVVSVLTVLHQDWLNGKEYKCKVSNDALPKPTEETISKAKGQPREPQVYTLPPSRCELTKNQVSLSCAVKGFYPSDIAVEWESNGQPENNYKTTPPVLDSDGSFFLVSKLTVDKSRWQQGNVFSCSVMHEALHNHYTQKSLSLSP
light: DIQMTQSPSSLSASVGDRVTITCRASQDIHKYIAWYQQKPGQAPRLLIQYTSTLQPGVPSRFSGSGSGTDYTFTISSLQPEDIATYYCLQYEQLRTFGGGTKVEIKRTVAAPSVFIFPPSDEQLKSGTASVVCLLNNFYPREAKVQWKVDNALQSGNSQESVTEQDSKDSTYSLSSTLTLSKADYEKHKVYACEVTHQGLSSPVTKSFNRGEC
notes: Heterodimerized anti-epiregulin IgG1 antibody; I332T in H240-Hl068
Take B1: the “relative KD” value with FcgRIIaH was 1.2; in the test with FcgRIIIaV, 0.6; with FcgRIa, 0.4; with FcgRIIaR, 1; with FcgRIIb it was 1.5; in the test with FcgRIIIaF, 0.7.

B2: H240-Kn120/H240-Hl170/L73-k0 (antibody, human IgG1, kappa)
heavy 1: QDQLVQSGAEVKKPGASVKVSCKASGFNIKDTYIQWVRQAPGQGLEWMGRIDPLRKQTKYREKFEGRVTITADTSTNTAYMELSSLRSEDTAVYYCVRSGREFDYWGQGTLVTVSSASTKGPSVFPLAPSSKSTSGGTAALGCLVKDYFPEPVTVSWNSGALTSGVHTFPAVLQSSGLYSLSSVVTVPSSSLGTQTYICNVNHKPSNTKVDKKVEPKSCDKTHTCPPCPAPEYYWGPMVFLFPPKPKDTLMISRTPEVTCVVVDVSDEDPEVKFNWYVDGVEVHNAKTKPREEQYNATYRVVSVLTVLHQDWLNGKEYKCKVSNKDLPAPIEKTISKAKGQPREPQVCTLPPSRDELTKNQVSLWCLVKGFYPSDIAVEWESNGQPENNYKTTPPVLDSDGSFFLYSKLTVDKSRWQQGNVFSCSVMHEALHNHYTQKSLSLSP
heavy 2: QDQLVQSGAEVKKPGASVKVSCKASGFNIKDTYIQWVRQAPGQGLEWMGRIDPLRKQTKYREKFEGRVTITADTSTNTAYMELSSLRSEDTAVYYCVRSGREFDYWGQGTLVTVSSASTKGPSVFPLAPSSKSTSGGTAALGCLVKDYFPEPVTVSWNSGALTSGVHTFPAVLQSSGLYSLSSVVTVPSSSLGTQTYICNVNHKPSNTKVDKKVEPKSCDKTHTCPPCPAPELLGGPSVFLFPPKPKDTLMISRTPEVTCVVVDVSHEEPEVKFNWYVDGVEVHNAKTKPREEQYNSTYRVVSVLTVLHQDWLNGKEYKCKVSNDAAPKPIEETISKAKGQPREPQVYTLPPSRCELTKNQVSLSCAVKGFYPSDIAVEWESNGQPENNYKTTPPVLDSDGSFFLVSKLTVDKSRWQQGNVFSCSVMHEALHNHYTQKSLSLSP
light: DIQMTQSPSSLSASVGDRVTITCRASQDIHKYIAWYQQKPGQAPRLLIQYTSTLQPGVPSRFSGSGSGTDYTFTISSLQPEDIATYYCLQYEQLRTFGGGTKVEIKRTVAAPSVFIFPPSDEQLKSGTASVVCLLNNFYPREAKVQWKVDNALQSGNSQESVTEQDSKDSTYSLSSTLTLSKADYEKHKVYACEVTHQGLSSPVTKSFNRGEC
notes: Heterodimerized anti-epiregulin IgG1 antibody; L328A in H240-Hl068
As to B2, the “relative KD” value with FcgRIIaH came to 2.3; with FcgRIIIaV, 0.4; in the test with FcgRIa it was 0.8; with FcgRIIaR, 2.3; with FcgRIIb, 2.2; with FcgRIIIaF it was 0.6.

B3: H240-Kn120/H240-Hl174/L73-k0 (antibody, human IgG1, kappa)
heavy 1: QDQLVQSGAEVKKPGASVKVSCKASGFNIKDTYIQWVRQAPGQGLEWMGRIDPLRKQTKYREKFEGRVTITADTSTNTAYMELSSLRSEDTAVYYCVRSGREFDYWGQGTLVTVSSASTKGPSVFPLAPSSKSTSGGTAALGCLVKDYFPEPVTVSWNSGALTSGVHTFPAVLQSSGLYSLSSVVTVPSSSLGTQTYICNVNHKPSNTKVDKKVEPKSCDKTHTCPPCPAPEYYWGPMVFLFPPKPKDTLMISRTPEVTCVVVDVSDEDPEVKFNWYVDGVEVHNAKTKPREEQYNATYRVVSVLTVLHQDWLNGKEYKCKVSNKDLPAPIEKTISKAKGQPREPQVCTLPPSRDELTKNQVSLWCLVKGFYPSDIAVEWESNGQPENNYKTTPPVLDSDGSFFLYSKLTVDKSRWQQGNVFSCSVMHEALHNHYTQKSLSLSP
heavy 2: QDQLVQSGAEVKKPGASVKVSCKASGFNIKDTYIQWVRQAPGQGLEWMGRIDPLRKQTKYREKFEGRVTITADTSTNTAYMELSSLRSEDTAVYYCVRSGREFDYWGQGTLVTVSSASTKGPSVFPLAPSSKSTSGGTAALGCLVKDYFPEPVTVSWNSGALTSGVHTFPAVLQSSGLYSLSSVVTVPSSSLGTQTYICNVNHKPSNTKVDKKVEPKSCDKTHTCPPCPAPELLGGPSVFLFPPKPKDTLMISRTPEVTCVVVDVSHEEPEVKFNWYVDGVEVHNAKTKPREEQYNSTYRVVSVLTVLHQDWLNGKEYKCKVSNDALPKPEEETISKAKGQPREPQVYTLPPSRCELTKNQVSLSCAVKGFYPSDIAVEWESNGQPENNYKTTPPVLDSDGSFFLVSKLTVDKSRWQQGNVFSCSVMHEALHNHYTQKSLSLSP
light: DIQMTQSPSSLSASVGDRVTITCRASQDIHKYIAWYQQKPGQAPRLLIQYTSTLQPGVPSRFSGSGSGTDYTFTISSLQPEDIATYYCLQYEQLRTFGGGTKVEIKRTVAAPSVFIFPPSDEQLKSGTASVVCLLNNFYPREAKVQWKVDNALQSGNSQESVTEQDSKDSTYSLSSTLTLSKADYEKHKVYACEVTHQGLSSPVTKSFNRGEC
notes: Heterodimerized anti-epiregulin IgG1 antibody; I332E in H240-Hl068
As for B3, the “relative KD” value with FcgRIIaH turned out to be 0.7; in the test with FcgRIIIaV it was 10; with FcgRIa, 1.1; with FcgRIIaR it was 0.7; with FcgRIIb, 1.2; with FcgRIIIaF it was 4.3.
